Patent US20090203610A1, “METHODS OF TREATING OBESITY OR DIABETES USING NT-4/5” (RINAT NEUROSCIENCE CORPORATION, priority 2004, published 2009)

Legend:
[1] = tested on: NONcNZO-10 polygenic obese and diabetic mice; test: Non-fasting blood glucose and HbA1c in polygenic obese and diabetic mice NONcNZO-10 (Example 3); assay type: in vivo; details: 2 or 10 mg/kg s.c. daily; dose dependent
Source text: Test animals: 19 male NONcNZO-10 polygenic obese and diabetic mice from Jackson Laboratory (See Leiter et al., Diabetes 53 (Suppl. 1): S4-S11, 2004) at 9 weeks of age weighing in the range of 28-35 g were used in this study.
Administration of NT-4/5: NT-4/5 was obtained from Genentech Inc.
The mice were divided into 3 groups of equivalent body weight and baseline glucose distribution (6-7 mice per group). […] Seven days before starting the treatment (day −7), blood samples were collected from the mice as described previously for the determination of baseline levels of blood glucose and triglyceride. After the treatment started, blood samples were collected weekly to determine glucose and triglyceride levels as described in previous examples. Body weight and food intake were monitored 5 days a week through out the entire study.

p75NTR = target: T1, p75NTR (Homo sapiens, UniProt P08138); details: low affinity receptor (LNGFR, p75NTR); cited from earlier work
T1 sequence (P08138 29-427): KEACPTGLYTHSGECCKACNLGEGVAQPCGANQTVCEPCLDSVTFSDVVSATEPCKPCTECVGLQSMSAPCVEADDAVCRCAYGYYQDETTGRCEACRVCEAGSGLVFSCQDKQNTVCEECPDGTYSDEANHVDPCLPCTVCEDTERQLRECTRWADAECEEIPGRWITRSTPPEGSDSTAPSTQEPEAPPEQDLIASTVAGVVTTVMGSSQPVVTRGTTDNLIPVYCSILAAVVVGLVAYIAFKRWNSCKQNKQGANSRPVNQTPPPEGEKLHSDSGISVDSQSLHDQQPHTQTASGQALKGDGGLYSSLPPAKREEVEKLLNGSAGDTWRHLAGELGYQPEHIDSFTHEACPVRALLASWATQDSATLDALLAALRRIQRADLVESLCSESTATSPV

B1: NT-4/5: mature human neurotrophin-4/5 (SEQ ID NO:1), obtained from Genentech or produced in E. coli (protein, listed as Homo sapiens)
chain: GVSETAPASRRGELAVCDAVSGWVTDRRTAVDLRGREVEVLGEVPAAGGSPLRQYFFETRCKADNAEEGGPGAGGGGCRGVDRRHWVSECKAKQSYVRALTADAQGRVGWRWIRIDTACVCTLLSRTGRA
For B1, the “long term glycemic control, HbA1c levels” value [1] is listed as “improved long term glycemic control”, the “non-fasting blood glucose level” value [1] is listed as “reduced non-fasting blood glucose level” and the Kd (p75NTR) is listed as 2 nM.
